# Experimental data taken from paper PMC3258132 (Nucleic Acids Research, 2011).
# Read-outs that look alike come from different tables or passages of the source.
# B1: d53_pT-b (ssDNA)
# DNA: GAGAGATTTTTTTTTTTTTTTTTTTTTTTTTTTTTTTTTTTTTTTTCCAGAGC
# B2: human L1 ORF1 protein (ORF1p), full length, expressed in insect cells (natural protein)
# chain: GMGKKQNRKTGNSKTQSASPPPKERSSSPATEQSWMENDFDELREEGFRRSNYSELREDIQTKGKEVENFEKNLEECITRITNTEKCLKELMELKTKARELREECRSLRSRCDQLEERVSAMEDEMNEMKREGKFREKRIKRNEQSLQEIWDYVKRPNLRLIGVPESDVENGTKLENTLQDIIQENFPNLARQANVQIQEIQRTPQRYSSRRATPRHIIVRFTKVEMKEKMLRAAREKGRVTLKGKPIRLTADLSAETLQARREWGPIFNILKEKNFQPRISYPAKLSFISEGEIKYFIDKQMLRDFVTTRPALKELLKEALNMERNNRYQPLQNHAKM
# B3: d29:d29_cmm mismatched duplex (dsDNA)
# DNA 1: AAAAAGTACACAGTCTAACATCAACTCGC
# DNA 2: GCGAGTTGACGTCAGACCGTGCACTTTTT
# B4: d60_orf1 (ssDNA)
# DNA: GATCATGCAGGACAGTCGGATCGCAACCTGATTTACTGTGTCATATAGTACGTGATTCAG
# B5: d29:d29_c perfect duplex (dsDNA)
# DNA 1: AAAAAGTACACAGTCTAACATCAACTCGC
# DNA 2: GCGAGTTGATGTTAGACTGTGTACTTTTT
# B6: d60_c (ssDNA)
# DNA: AGCGAGTTGATGTTAGACTGTGTACTTTTTGCGAGTTGATGTTAGACTGTGTACTTTTTA
# B7: M128p, N-terminal deletion mutant of human L1 ORF1p (residues 128-338) (domain or fragment)
# chain: GMKREGKFREKRIKRNEQSLQEIWDYVKRPNLRLIGVPESDVENGTKLENTLQDIIQENFPNLARQANVQIQEIQRTPQRYSSRRATPRHIIVRFTKVEMKEKMLRAAREKGRVTLKGKPIRLTADLSAETLQARREWGPIFNILKEKNFQPRISYPAKLSFISEGEIKYFIDKQMLRDFVTTRPALKELLKEALNMERNNRYQPLQNHAKM
# B8: d120_c (ssDNA)
# DNA: AGCGAGTTGATGTTAGACTGTGTACTTTTTGCGAGTTGATGTTAGACTGTGTACTTTTTAAGCGAGTTGATGTTAGACTGTGTACTTTTTGCGAGTTGATGTTAGACTGTGTACTTTTTA
# B9: r60_U (ssRNA)
# RNA: UUUUUUUUUUUUUUUUUUUUUUUUUUUUUUUUUUUUUUUUUUUUUUUUUUUUUUUUUUUU
# B10: d58_pT-b (ssDNA)
# DNA: GAGAGATTTTTTTTTTTTTTTTTTTTTTTTTTTTTTTTTTTTTTTTTTTTTCCAGAGC
# Key:
# L1 ORF1p [1] = target: T1, L1 ORF1p (Homo sapiens (L1.3, Ta-1 subfamily of …, UniProt Q9UN81)); test: EMSA
# L1 ORF1p [2] = target: T1, L1 ORF1p; test: filter binding
# AUC [3] = target: the molecule itself; test: AUC
# L1 ORF1p [4] = target: T1, L1 ORF1p; test: filter binding; remark: listed apart in the source
# L1 ORF1p [5] = target: T1, L1 ORF1p; test: filter binding; remark: listed apart in the source
# L1 ORF1p [6] = target: T1, L1 ORF1p; test: filter binding; remark: listed apart in the source
# AUC [7] = target: the molecule itself; test: AUC; remark: listed apart in the source
# AUC [8] = target: the molecule itself; test: AUC; remark: listed apart in the source
# L1 ORF1p [9] = target: T1, L1 ORF1p; test: EMSA; remark: listed apart in the source
# L1 ORF1p [10] = target: T1, L1 ORF1p; test: EMSA; remark: listed apart in the source
binder,measurement,setting,value
B1,binding result,L1 ORF1p [1],binds
GCGAGTTGATGTTAGACTGTGTACTTTTT (ssDNA) [d29_c],binding signal,L1 ORF1p [2],~1 fold of mismatched duplex affinity
B2,stoichiometry N,AUC [3],3
B3,binding signal,L1 ORF1p [4],~1 fold of ssDNA d29_c affinity
B4,binding result,L1 ORF1p [1],binds
B5,binding signal,L1 ORF1p [5],~8 fold lower affinity than mismatched duplex N10
B6,apparent K (half saturation),L1 ORF1p [6],~1 nM
B7,Kd,AUC [7],~3.4 µM
same,stoichiometry N,AUC [7],3
same,Kd,AUC [8],~35 µM
B8,binding result,L1 ORF1p [9],binds
B9,binding result,L1 ORF1p [1],binds
ACCUGCACAAUGUGCACAUGAAAAAAAAAA (ssRNA) [r30_3'utr-a],apparent K (half saturation),L1 ORF1p [6],~1 nM
B10,binding result,L1 ORF1p [10],binds
